From patent US6586946B2, “System and method for detecting and identifying molecular events in a test sample using a resonant test structure” (Signature BioScience, Inc., priority 2000, dated 2003) come the findings set out here.

B1: turkey lysozyme (protein, UniProt P00703 19-147, looked up)
Lysozyme C: KVYGRCELAAAMKRLGLDNYRGYSLGNWVCAAKFESNFNTHATNRNTDGSTDYGILQINSRWWCNDGRTPGSKNLCNIPCSALLSSDITASVNCAKKIASGGNGMNAWVAWRNRCKGTDVHAWIRGCRL
notes: test protein

The data set in a line: Resonant frequency shift of coaxial resonator coupled to protein solution versus PBS buffer (S11 return loss). Type of data set: physicochemical. As to conditions: protein solution in PTFE tube; reference PBS pH 7.4; input test signal approximately 1 GHz, 100 KHz band. The procedure:
Using the systems and methods of the present invention, several experiments were performed to detect and identify molecular events in a solution. […] The vector network analyzer used was model number HP 8714 manufactured by Agilent Technologies, Inc. (Palo Alto, Calif.) The computer is an HP Vectra computer (Hewlett Packard Company, Palo Alto, Calif.) executing a graphically user interface (LabView® platform) to control the operation of the network analyzer and to display the resulting data. The coaxial resonator 122 illustrated in FIG. 3A was used in the experiments to illuminate the reference and test samples. […] The PTFE tube 470 is used to transport the reference and test samples to the detection region of the resonant test assembly and measures 0.031″ I.D., 0.063″ O.D., wall 0.016″ in cross-section dimensions.
The proteins used for the experiment included bovine serum albumin (BSA), ribonuclease (rnase), urease, myoglobin, fibrinogen (type I-S, bovine), chicken lysozyme (egg white), and turkey lysozyme. Phosphate buffer solution (PBS, pH 7.4) was purchased from Sigma (St. Louis, Mo.) and used as the reference sample.
In the reference measurement, PBS buffer was introduced into the tube and transported to the detection region, and a S11 (return loss) measurement of the resonator was taken. In the illustrated example, the measurement was taken at 1 GHz over a 100 KHz band. From the measured S11 response, the resonant frequency fres and Q-factor of the resonator were computed and stored, as described above.
Next, each of the aforementioned protein solutions were introduced into the tube and transported to the detection region. The resonator's S11 response was measured (over the same frequency range as above) and the corresponding resonant frequency fres and Q-factor parameters derived therefrom. Subsequently, the difference in the resonant frequencies Δfres is computed. This quantity was subsequently plotted versus the resonator's measured Q-factor when electromagnetically coupled to the test sample. FIG. 6 illustrates this mapping.
Turning to fibrinogen, the “change in resonant frequency of the resonator (relative to the PBS buffer)” value was “approximately 1.75 KHz”. The result for myoglobin reads roughly 4 KHz. With urease the figure was roughly 2 KHz; with chicken lysozyme, roughly 6.5 KHz. With B1 the figure was roughly 6.75 KHz.
